# Measured values: PMC3941051
# Molecular target: His-FLAG-Arp5 (not stated (human or rat cDNA cloned)) (UniProt Q9H9F9)
# Experiment: cross-linking
# UniProt Q9H9F9, sequence (Q9H9F9 whole entry): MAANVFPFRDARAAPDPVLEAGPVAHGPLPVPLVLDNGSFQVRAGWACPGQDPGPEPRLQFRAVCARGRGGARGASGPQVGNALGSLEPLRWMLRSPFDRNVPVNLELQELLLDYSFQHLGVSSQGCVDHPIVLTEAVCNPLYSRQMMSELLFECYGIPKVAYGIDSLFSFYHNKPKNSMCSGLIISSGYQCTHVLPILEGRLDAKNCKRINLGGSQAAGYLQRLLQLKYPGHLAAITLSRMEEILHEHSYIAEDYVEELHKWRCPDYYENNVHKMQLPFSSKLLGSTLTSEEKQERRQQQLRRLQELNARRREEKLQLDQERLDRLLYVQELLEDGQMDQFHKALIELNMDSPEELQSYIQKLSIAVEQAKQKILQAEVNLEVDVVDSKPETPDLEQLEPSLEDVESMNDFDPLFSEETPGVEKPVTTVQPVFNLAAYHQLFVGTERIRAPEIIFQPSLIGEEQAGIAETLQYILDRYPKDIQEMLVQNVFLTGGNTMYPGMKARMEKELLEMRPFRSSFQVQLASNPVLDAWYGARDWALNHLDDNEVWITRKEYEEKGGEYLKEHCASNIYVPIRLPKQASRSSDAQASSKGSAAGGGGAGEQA
substance,measurement,value
GFP-fused 32-amino acid Myocd RPEL1 motif peptide (RPEL1-GFP),stoichiometry N,1
